Reference: ChEMBL document CHEMBL1157618, “Noncovalent tripeptidyl benzyl- and cyclohexyl-amine inhibitors of the cysteine protease caspase-1” (J Med Chem, 2010)

Substrate: CC(C)[C@H](NC(=O)c1ccc2ccccc2c1)C(=O)N[C@@H](C)C(=O)N[C@H](CNCc1ccccc1O)CC(=O)O
Details: Homo sapiens
Description: Activity of human recombinant caspase 1

B1: Caspase-1 (Homo sapiens), P29466 (protein)
chain: MADKVLKEKRKLFIRSMGEGTINGLLDELLQTRVLNKEEMEKVKRENATVMDKTRALIDSVIPKGAQACQICITYICEEDSYLAGTLGLSADQTSGNYLNMQDSQGVLSSFPAPQAVQDNPAMPTSSGSEGNVKLCSLEEAQRIWKQKSAEIYPIMDKSSRTRLALIICNEEFDSIPRRTGAEVDITGMTMLLQNLGYSVDVKKNLTASDMTTELEAFAHRPEHKTSDSTFLVFMSHGIREGICGKKHSEQVPDILQLNAIFNMLNTKNCPSLKDKPKVIIIQACRGDSPGVVWFKDSVGVSGNLSLPTTEEFEDDAIKKAHIEKDFIAFCSSTPDNVSWRHPTMGSVFIGRLIEHMQEYACSCDVEEIFRKVRFSFEQPDGRAQMPTTERVTLTRCFYLFPGH
- Km: 5.8 µM
